Source: patent US20090155176A1

Legend:
Settings in all cases: remark: other sources report otherwise
[1] = biological target: T1, LFA-1 (lymphocyte function-associated antigen-1), purified heterodimer captured on ELISA plates (human), P20701
[2] = biological target: T1, LFA-1 (lymphocyte function-associated …); assay: LFA-1/ICAM-1 ELISA: sICAM-1 titrated against ICAM-1-Ig on antibody-captured LFA-1; reference compound 3 (2 nM IC50)
[3] = biological target: T1, LFA-1 (lymphocyte function-associated …); assay: LFA-1/small molecule ELISA: sICAM-1 titrated against 25 nM fluorescein-labelled compound 2B on antibody-captured LFA-1

T1 sequence (P20701 26-1170 limits assumed, form in doubt, chain 1 of 2): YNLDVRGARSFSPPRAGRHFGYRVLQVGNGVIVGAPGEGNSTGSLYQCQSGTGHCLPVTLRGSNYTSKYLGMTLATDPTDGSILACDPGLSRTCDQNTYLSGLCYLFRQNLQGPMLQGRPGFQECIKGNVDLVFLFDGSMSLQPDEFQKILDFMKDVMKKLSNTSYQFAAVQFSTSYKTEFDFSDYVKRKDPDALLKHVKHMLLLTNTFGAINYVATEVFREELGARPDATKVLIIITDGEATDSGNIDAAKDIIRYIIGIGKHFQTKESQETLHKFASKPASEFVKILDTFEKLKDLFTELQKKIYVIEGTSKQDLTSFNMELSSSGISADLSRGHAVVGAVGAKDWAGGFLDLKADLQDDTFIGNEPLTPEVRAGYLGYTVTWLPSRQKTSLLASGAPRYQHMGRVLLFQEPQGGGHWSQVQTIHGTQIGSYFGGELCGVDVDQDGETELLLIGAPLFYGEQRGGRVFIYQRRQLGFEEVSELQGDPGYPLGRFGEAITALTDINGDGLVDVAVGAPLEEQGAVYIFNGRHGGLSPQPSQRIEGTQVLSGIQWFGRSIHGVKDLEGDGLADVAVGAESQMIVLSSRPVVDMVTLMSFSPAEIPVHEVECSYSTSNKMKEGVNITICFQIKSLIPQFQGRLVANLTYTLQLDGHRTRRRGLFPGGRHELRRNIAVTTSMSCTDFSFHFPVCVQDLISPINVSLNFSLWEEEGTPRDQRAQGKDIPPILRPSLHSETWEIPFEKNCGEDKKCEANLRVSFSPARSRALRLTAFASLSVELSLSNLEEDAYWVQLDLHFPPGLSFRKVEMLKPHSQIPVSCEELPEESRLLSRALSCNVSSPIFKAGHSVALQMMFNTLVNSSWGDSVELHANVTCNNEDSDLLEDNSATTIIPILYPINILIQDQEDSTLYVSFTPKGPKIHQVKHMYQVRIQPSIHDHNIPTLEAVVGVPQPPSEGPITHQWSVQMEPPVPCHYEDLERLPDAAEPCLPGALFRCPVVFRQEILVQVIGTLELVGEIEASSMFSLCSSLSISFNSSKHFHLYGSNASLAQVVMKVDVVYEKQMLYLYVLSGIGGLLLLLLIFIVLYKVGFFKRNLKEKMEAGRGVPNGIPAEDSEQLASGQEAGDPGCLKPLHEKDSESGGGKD
T1 sequence (P05107 23-769 limits assumed, form in doubt, chain 2 of 2, further chain): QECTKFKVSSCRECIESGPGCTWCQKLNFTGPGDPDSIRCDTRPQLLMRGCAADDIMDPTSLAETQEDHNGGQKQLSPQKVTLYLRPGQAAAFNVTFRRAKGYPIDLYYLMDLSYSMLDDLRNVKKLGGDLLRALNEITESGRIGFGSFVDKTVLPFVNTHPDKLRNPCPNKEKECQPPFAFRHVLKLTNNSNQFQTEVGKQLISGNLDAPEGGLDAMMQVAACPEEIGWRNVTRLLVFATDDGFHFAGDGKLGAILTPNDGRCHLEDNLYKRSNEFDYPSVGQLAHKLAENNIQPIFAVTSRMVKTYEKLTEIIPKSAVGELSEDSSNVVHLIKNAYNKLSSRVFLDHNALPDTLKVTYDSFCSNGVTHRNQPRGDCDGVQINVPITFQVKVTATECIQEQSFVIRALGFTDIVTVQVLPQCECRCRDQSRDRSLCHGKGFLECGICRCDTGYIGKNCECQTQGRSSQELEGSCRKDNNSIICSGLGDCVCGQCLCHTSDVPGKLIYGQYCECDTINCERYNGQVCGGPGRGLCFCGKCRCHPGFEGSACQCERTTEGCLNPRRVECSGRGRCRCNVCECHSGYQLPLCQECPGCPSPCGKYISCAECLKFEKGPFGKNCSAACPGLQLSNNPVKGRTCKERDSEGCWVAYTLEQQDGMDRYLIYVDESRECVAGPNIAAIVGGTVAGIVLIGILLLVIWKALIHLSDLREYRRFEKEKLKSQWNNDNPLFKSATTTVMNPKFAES

B1: sICAM-1 (soluble ICAM-1), P05362 28-480 (ligand, UniProt P05362 28-480, looked up)
chain: QTSVSPSKVILPRGGSVLVTCSTSCDQPKLLGIETPLPKKELLLPGNNRKVYELSNVQEDSQPMCYSNCPDGQSTAKTFLTVYWTPERVELAPLPSWQPVGKNLTLRCQVEGGAPRANLTVVLLRGEKELKREPAVGEPAEVTTTVLVRRDHHGANFSCRTELDLRPQGLELFENTSAPYQLQTFVLPATPPQLVSPRVLEVDTQGTVVCSLDGLFPVSEAQVHLALGDQRLNPTVTYGNDSFSAKASVSVTAEDEGTQRLTCAVILGNQSQETLQTVTIYSFPAPNVILTKPEVSEGTEVTVKCEAHPRAKVTLNGVPAQPLGPRAQLLLKATPEDNGRSFSCSATLEVAGQLIHKNQTRELRVLYGPRLDERDCPGNWTWPENSQQTPMCQAWGNPLPELKCLKDGTFPLPIGESVTVTRDLEGTYLCRARSTQGEVTRKVTVNVLSPRYE
In the case of B1, the Schild regression y-intercept [1] is reported as 8.51, the fold IC50 against compound 3 [2] is reported as greater than 100 fold and the IC50 [3] is reported as 1200 nM.
